Results published in PMC5024103, “Catalytic Thr or Ser Residue Modulates Structural Switches in 2-Cys Peroxiredoxin by Distinct Mechanisms” (Scientific Reports, 2016).
Substitutions are numbered along the chain they refer to. Numbers in names are those of the source.

Assays:
[1] = biological target: Tsa1^WT (typical 2-Cys peroxiredoxin Tsa1 from S. cerevisiae) (S. cerevisiae) (UniProt P34760); test: SEC; analytical HPLC, Phenomenex BioSep-SEC-S3000, 50 uM enzyme, 100 mM Tris-HCl pH 7.4, 50 mM NaCl, 1 mL/min; samples reduced with 5 mM TCEP for 30 min at 25 C; dimers to decamer
[2] = biological target: Tsa1^T44A (S. cerevisiae) (UniProt P34760); test: as above
[3] = biological target: Tsa1^T44S (S. cerevisiae) (UniProt P34760); test: as above
[4] = biological target: Tsa1^T44S (S. cerevisiae) (UniProt P34760); test: SEC; analytical HPLC, Phenomenex BioSep-SEC-S3000, 50 uM enzyme, 100 mM Tris-HCl pH 7.4, 50 mM NaCl, 1 mL/min; samples reduced with TCEP and then oxidised (disulfide) with 1.2 molar equivalents of H2O2 for 30 min at 25 C; dimers to decamer
[5] = substrate: CC(C)(OO)c1ccccc1; test: Trx system coupled assay, NADPH oxidation; format: biochemical, Saccharomyces cerevisiae; details: Trx1 2 μM, TrxR1 0.3 μM, NADPH 150 μM, HEPES pH 7.4, 30 °C
Text: Trx system coupled assay, NADPH oxidation on Tsa1 (Tsa1^WT) | In the case of cumene hydroperoxide (CHP) reduction, Tsa1^WT and Tsa1^T44S also presented similar enzymatic parameters

[6] = substrate: CC(C)(OO)c1ccccc1; test: Trx system coupled assay, NADPH oxidation; format: biochemical, Saccharomyces cerevisiae; details: Trx1 2 μM, TrxR1 0.3 μM, NADPH 150 μM, HEPES pH 7.4, 30 °C; remark: listed apart in the source
[7] = biological target: the molecule itself; test: SEC; analytical HPLC, Phenomenex BioSep-SEC-S3000, 50 uM enzyme, 100 mM Tris-HCl pH 7.4, 50 mM NaCl, 1 mL/min; samples reduced with TCEP and then oxidised (disulfide) with 1.2 molar equivalents of H2O2 for 30 min at 25 C; dimers to decamer
[8] = biological target: the molecule itself; test: SEC; analytical HPLC, Phenomenex BioSep-SEC-S3000, 50 uM enzyme, 100 mM Tris-HCl pH 7.4, 50 mM NaCl, 1 mL/min; samples reduced with 5 mM TCEP for 30 min at 25 C; dimers to decamer

Tsa1^WT (typical 2-Cys peroxiredoxin Tsa1 from S. cerevisiae) (from UniProt P34760 1-196) (enzyme)
stoichiometry N [1]: 10

Tsa1^T44A (from UniProt P34760 1-196) (enzyme)
stoichiometry N [2]: 10

Tsa1^T44S (from UniProt P34760 1-196) (enzyme)
stoichiometry N [3]: 10
stoichiometry N [4]: 10

B1: Tsa1 (Tsa1^WT) (Saccharomyces cerevisiae S288C) (protein)
chain: MVAQVQKQAPTFKKTAVVDGVFDEVSLDKYKGKYVVLAFIPLAFTFVCPTEIIAFSEAAKKFEEQGAQVLFASTDSEYSLLAWTNIPRKEGGLGPINIPLLADTNHSLSRDYGVLIEEEGVALRGLFIIDPKGVIRHITINDLPVGRNVDEALRLVEAFQWTDKNGTVLPCNWTPGAATIKPTVEDSKEYFEAANK
notes: pET15b/Tsa1, His-tagged (HisTrap IMAC); homodimer ~48 kDa, decamer ~240 kDa
Km [5]: 8.80 ± 0.05 µM
kcat [5]: 0.7 ± 0.1 s⁻¹
kcat/Km [5]: 82000 ± 11000 M⁻¹ s⁻¹

B2: Tsa1 (Tsa1^WT) (Saccharomyces cerevisiae S288C; T45A) (protein)
chain: B1 chain with T45A
notes: as for B1
Km [6]: 300 µM

B3: Tsa1 (Tsa1^WT) (Saccharomyces cerevisiae S288C; T45S) (protein)
chain: B1 chain with T45S
notes: as for B1
Km [5]: 9.9 ± 1.2 µM
kcat [5]: 0.7 ± 0.1 s⁻¹
kcat/Km [5]: 75000 ± 9000 M⁻¹ s⁻¹

B4: Tsa1^T44V (enzyme)
chain: B1 chain with T45V
stoichiometry N [7]: 2

B5: Tsa1^Y77A (enzyme)
chain: B1 chain with Y78A
stoichiometry N [8]: 2
stoichiometry N [7]: 2

B6: Tsa1^S78D (enzyme)
chain: B1 chain with S79D
stoichiometry N [8]: 2
stoichiometry N [7]: 2

B7: Tsa2^WT (typical 2-Cys peroxiredoxin Tsa2 from S. cerevisiae) (enzyme)
chain: MVAEVQKQAPPFKKTAVVDGIFEEISLEKYKGKYVVLAFVPLAFSFVCPTEIVAFSDAAKKFEDQGAQVLFASTDSEYSLLAWTNLPRKDGGLGPVKVPLLADKNHSLSRDYGVLIEKEGIALRGLFIIDPKGIIRHITINDLSVGRNVNEALRLVEGFQWTDKNGTVLPCNWTPGAATIKPDVKDSKEYFKNANN
notes: Tsa2, typical 2-Cys peroxiredoxin of Saccharomyces cerevisiae (86% identity with Tsa1; Ser45 in place of Thr44 of Tsa1); Decamer in both redox states by SEC; source: E. coli BL21 (DE3), pPROEx/tsa2, purified (IMAC on HisTrap, PD10 desalting); not shown: His tag (from the vector pPROEx); copies: 10
stoichiometry N [8]: 10
stoichiometry N [7]: 10
